# Measurements published in ChEMBL document CHEMBL1255351, “Biochemical characterization of metallo-beta-lactamase VIM-11 from a Pseudomonas aeruginosa clinical strain” (2008).
# Assays:
# [1] = tested on: CC(C)(O/N=C(\C(=O)N[C@@H]1C(=O)N2C(C(=O)[O-])=C(C[n+]3ccccc3)CS[C@H]12)c1csc(N)n1)C(=O)O; assay: (§1) Activity at Pseudomonas aeruginosa M5109 metallo-beta-lactamase VIM-11 by spectrometry
# [2] = tested on: CO[C@@]1(NC(=O)Cc2cccs2)C(=O)N2C(C(=O)O)=C(COC(N)=O)CS[C@@H]21; assay: as §1
# [3] = tested on: CO/N=C(\C(=O)N[C@@H]1C(=O)N2C(C(=O)O)=C(COC(N)=O)CS[C@H]12)c1ccco1; assay: as §1
# [4] = tested on: CO/N=C(\C(=O)N[C@@H]1C(=O)N2C(C(=O)[O-])=C(C[n+]3cccc4c3CCC4)CS[C@H]12)c1csc(N)n1; assay: as §1
# [5] = tested on: O=C(Cc1cccs1)N[C@@H]1C(=O)N2C(C(=O)O)=C(/C=C/c3ccc([N+](=O)[O-])cc3[N+](=O)[O-])CS[C@H]12; assay: as §1
# [6] = tested on: CO/N=C(\C(=O)N[C@@H]1C(=O)N2C(C(=O)O)=C(COC(C)=O)CS[C@H]12)c1csc(N)n1; assay: as §1
# [7] = tested on: C[C@@H](O)[C@H]1C(=O)N2C(C(=O)O)=C(S[C@@H]3CN[C@H](C(=O)N(C)C)C3)[C@H](C)[C@H]12; assay: as §1
# [8] = tested on: CC(=O)OCC1=C(C(=O)O)N2C(=O)[C@@H](NC(=O)Cc3cccs3)[C@H]2SC1; assay: as §1
# [9] = tested on: CC1(C)S[C@@H]2[C@H](NC(=O)[C@H](N)c3ccccc3)C(=O)N2[C@H]1C(=O)O; assay: as §1
# [10] = tested on: CC(C)(O/N=C(\C(=O)N[C@@H]1C(=O)N2C(C(=O)[O-])=C(C[n+]3ccccc3)CS[C@H]12)c1csc(N)n1)C(=O)O; assay: (§2) Ratio of Kcat to Km for Pseudomonas aeruginosa M5109 metallo-beta-lactamase VIM-11
# [11] = tested on: CO[C@@]1(NC(=O)Cc2cccs2)C(=O)N2C(C(=O)O)=C(COC(N)=O)CS[C@@H]21; assay: as §2
# [12] = tested on: CO/N=C(\C(=O)N[C@@H]1C(=O)N2C(C(=O)O)=C(COC(N)=O)CS[C@H]12)c1ccco1; assay: as §2
# [13] = tested on: CO/N=C(\C(=O)N[C@@H]1C(=O)N2C(C(=O)[O-])=C(C[n+]3cccc4c3CCC4)CS[C@H]12)c1csc(N)n1; assay: as §2
# [14] = tested on: O=C(Cc1cccs1)N[C@@H]1C(=O)N2C(C(=O)O)=C(/C=C/c3ccc([N+](=O)[O-])cc3[N+](=O)[O-])CS[C@H]12; assay: as §2
# [15] = tested on: CO/N=C(\C(=O)N[C@@H]1C(=O)N2C(C(=O)O)=C(COC(C)=O)CS[C@H]12)c1csc(N)n1; assay: as §2
# [16] = tested on: C[C@@H](O)[C@H]1C(=O)N2C(C(=O)O)=C(S[C@@H]3CN[C@H](C(=O)N(C)C)C3)[C@H](C)[C@H]12; assay: as §2
# [17] = tested on: CC(=O)OCC1=C(C(=O)O)N2C(=O)[C@@H](NC(=O)Cc3cccs3)[C@H]2SC1; assay: as §2
# [18] = tested on: CC1(C)S[C@@H]2[C@H](NC(=O)[C@H](N)c3ccccc3)C(=O)N2[C@H]1C(=O)O; assay: as §2
# [19] = tested on: Pseudomonas aeruginosa; assay: Ratio of Kcat to Km for Pseudomonas aeruginosa COL-1 metallo-beta lactamase VIM-2 over Kcat to Km for Pseudomonas aeruginosa M5109 metallo-beta-lactamase VIM-11
# [20] = tested on: Escherichia coli; assay: Antimicrobial activity Escherichia coli DH5alpha expressing metallo-beta-lactamase VIM-11 by agar macrodilution method; type: functional
# [21] = tested on: Escherichia coli; assay: Antimicrobial activity Escherichia coli DH5alpha expressing beta lactamase VIM-2 by agar macrodilution method; type: functional
# [22] = tested on: CC(C)(O/N=C(\C(=O)N[C@@H]1C(=O)N2C(C(=O)[O-])=C(C[n+]3ccccc3)CS[C@H]12)c1csc(N)n1)C(=O)O; assay: (§3) Ratio of Kcat to Km for Pseudomonas aeruginosa COL-1 metallo-beta lactamase VIM-2
# [23] = tested on: CO[C@@]1(NC(=O)Cc2cccs2)C(=O)N2C(C(=O)O)=C(COC(N)=O)CS[C@@H]21; assay: as §3
# [24] = tested on: CO/N=C(\C(=O)N[C@@H]1C(=O)N2C(C(=O)O)=C(COC(N)=O)CS[C@H]12)c1ccco1; assay: as §3
# [25] = tested on: O=C(Cc1cccs1)N[C@@H]1C(=O)N2C(C(=O)O)=C(/C=C/c3ccc([N+](=O)[O-])cc3[N+](=O)[O-])CS[C@H]12; assay: as §3
# [26] = tested on: CO/N=C(\C(=O)N[C@@H]1C(=O)N2C(C(=O)O)=C(COC(C)=O)CS[C@H]12)c1csc(N)n1; assay: as §3
# [27] = tested on: C[C@@H](O)[C@H]1C(=O)N2C(C(=O)O)=C(S[C@@H]3CN[C@H](C(=O)N(C)C)C3)[C@H](C)[C@H]12; assay: as §3
# [28] = tested on: CC(=O)OCC1=C(C(=O)O)N2C(=O)[C@@H](NC(=O)Cc3cccs3)[C@H]2SC1; assay: as §3
# [29] = tested on: CC1(C)S[C@@H]2[C@H](NC(=O)[C@H](N)c3ccccc3)C(=O)N2[C@H]1C(=O)O; assay: as §3
# [30] = tested on: CC(C)(O/N=C(\C(=O)N[C@@H]1C(=O)N2C(C(=O)[O-])=C(C[n+]3ccccc3)CS[C@H]12)c1csc(N)n1)C(=O)O; assay: (§4) Activity at Pseudomonas aeruginosa COL-1 metallo-beta lactamase VIM-2 by spectrometry
# [31] = tested on: CO[C@@]1(NC(=O)Cc2cccs2)C(=O)N2C(C(=O)O)=C(COC(N)=O)CS[C@@H]21; assay: as §4
# [32] = tested on: CO/N=C(\C(=O)N[C@@H]1C(=O)N2C(C(=O)O)=C(COC(N)=O)CS[C@H]12)c1ccco1; assay: as §4
# [33] = tested on: CO/N=C(\C(=O)N[C@@H]1C(=O)N2C(C(=O)[O-])=C(C[n+]3cccc4c3CCC4)CS[C@H]12)c1csc(N)n1; assay: as §4
# [34] = tested on: O=C(Cc1cccs1)N[C@@H]1C(=O)N2C(C(=O)O)=C(/C=C/c3ccc([N+](=O)[O-])cc3[N+](=O)[O-])CS[C@H]12; assay: as §4
# [35] = tested on: CO/N=C(\C(=O)N[C@@H]1C(=O)N2C(C(=O)O)=C(COC(C)=O)CS[C@H]12)c1csc(N)n1; assay: as §4
# [36] = tested on: C[C@@H](O)[C@H]1C(=O)N2C(C(=O)O)=C(S[C@@H]3CN[C@H](C(=O)N(C)C)C3)[C@H](C)[C@H]12; assay: as §4
# [37] = tested on: CC(=O)OCC1=C(C(=O)O)N2C(=O)[C@@H](NC(=O)Cc3cccs3)[C@H]2SC1; assay: as §4
# [38] = tested on: CC1(C)S[C@@H]2[C@H](NC(=O)[C@H](N)c3ccccc3)C(=O)N2[C@H]1C(=O)O; assay: as §4
# [39] = tested on: Escherichia coli; assay: Antimicrobial activity Escherichia coli DH5alpha harboring bacteriophage T4 plasmid alpha omega by agar macrodilution method; type: functional
# [40] = target: Metallo-beta-lactamase (Escherichia coli) (UniProt Q5U7L7); assay: Activity at Escherichia coli DH5alpha metallo-beta-lactamase VIM-2 assessed as compound hydrolysis per mg of total periplasmic protein by spectrometry
# [41] = tested on: Escherichia coli; assay: Activity at Escherichia coli DH5alpha metallo-beta-lactamase VIM-11 assessed as compound hydrolysis per mg of total periplasmic protein by spectrometry
molecule,measurement,setting,value
Metallo-beta-lactamase VIM-11 (Pseudomonas aeruginosa) (from UniProt C7DTR7),Km,[1],110 µM
same,kcat,[1],14 s⁻¹
same,Km,[2],7.4 µM
same,kcat,[2],6.4 s⁻¹
same,Km,[3],5.5 µM
same,kcat,[3],27 s⁻¹
same,Km,[4],183 µM
same,kcat,[4],102 s⁻¹
same,Km,[5],8.2 µM
same,kcat,[5],129 s⁻¹
same,Km,[6],11.4 µM
same,kcat,[6],41.3 s⁻¹
same,Km,[7],22.7 µM
same,kcat,[7],3.2 s⁻¹
same,Km,[8],4.5 µM
same,kcat,[8],81 s⁻¹
same,Km,[9],109 µM
same,kcat,[9],190 s⁻¹
same,kcat/Km,[10],1.3 ×10⁶ /M/s
same,kcat/Km,[11],8.6 ×10⁶ /M/s
same,kcat/Km,[12],4.9 ×10⁶ /M/s
same,kcat/Km,[13],5.6 ×10⁶ /M/s
same,kcat/Km,[14],1.6 ×10⁶ /M/s
same,kcat/Km,[15],3.6 ×10⁶ /M/s
same,kcat/Km,[16],1.4 ×10⁶ /M/s
same,kcat/Km,[17],1.8 ×10⁶ /M/s
same,kcat/Km,[18],1.8 ×10⁶ /M/s
CO/N=C(\C(=O)N[C@@H]1C(=O)N2C(C(=O)[O-])=C(C[N+]3(C)CCCC3)CS[C@H]12)c1csc(N)n1,kcat/Km ratio,[19],2.9
same,MIC,[20],0.5 µg/mL
same,MIC,[21],0.5 µg/mL
Metallo-beta-lactamase VIM-2 (Pseudomonas aeruginosa) (from UniProt D1MEN9),kcat/Km,[22],3.2 ×10⁶ /M/s
same,kcat/Km,[23],1 ×10⁶ /M/s
same,kcat/Km,[24],5.5 ×10⁶ /M/s
same,kcat/Km,[25],1.5 ×10⁶ /M/s
same,kcat/Km,[26],4.6 ×10⁶ /M/s
same,kcat/Km,[27],1.4 ×10⁶ /M/s
same,kcat/Km,[28],1.6 ×10⁶ /M/s
same,kcat/Km,[29],2.2 ×10⁶ /M/s
same,Km,[30],88.2 µM
same,kcat,[31],10 s⁻¹
same,Km,[32],5.5 µM
same,kcat,[32],30.5 s⁻¹
same,Km,[33],171 µM
same,kcat,[33],48.1 s⁻¹
same,Km,[34],13.8 µM
same,kcat,[34],206 s⁻¹
same,Km,[35],13.4 µM
same,kcat,[35],61 s⁻¹
same,Km,[36],24.5 µM
same,kcat,[36],3.5 s⁻¹
same,Km,[37],6.2 µM
same,kcat,[37],96.4 s⁻¹
same,Km,[38],136 µM
CO[C@@]1(NC(=O)Cc2cccs2)C(=O)N2C(C(=O)O)=C(COC(N)=O)CS[C@@H]21 [CEFOXITIN],kcat/Km ratio,[19],0.86
same,MIC,[20],32 µg/mL
same,MIC,[21],64 µg/mL
same,MIC,[39],4 µg/mL
O=C(Cc1cccs1)N[C@@H]1C(=O)N2C(C(=O)O)=C(/C=C/c3ccc([N+](=O)[O-])cc3[N+](=O)[O-])CS[C@H]12,kcat/Km ratio,[19],1.06
CO/N=C(\C(=O)N[C@@H]1C(=O)N2C(C(=O)O)=C(COC(C)=O)CS[C@H]12)c1csc(N)n1 [CEFOTAXIME],kcat/Km ratio,[19],0.78
same,MIC,[20],4 µg/mL
same,MIC,[21],8 µg/mL
same,MIC,[39],0.03 µg/mL
CC1(C)S[C@@H]2[C@H](NC(=O)[C@H](N)c3ccccc3)C(=O)N2[C@H]1C(=O)O [AMPICILLIN],kcat/Km ratio,[19],0.81
same,MIC,[20],64 µg/mL
same,MIC,[21],256 µg/mL
same,MIC,[39],8 µg/mL
C[C@@H](O)[C@H]1C(=O)N2C(C(=O)O)=C(S[C@@H]3CN[C@H](C(=O)N(C)C)C3)[C@H](C)[C@H]12 [MEROPENEM],kcat/Km ratio,[19],1
same,MIC,[20],0.06 µg/mL
same,MIC,[21],0.125 µg/mL
same,MIC,[39],0.03 µg/mL
C[C@@H](O)[C@H]1C(=O)N2C(C(=O)O)=C(SCCNC=N)C[C@H]12 [IMIPENEM ANHYDROUS],Activity,[40],27 µmol
same,kcat/Km ratio,[19],0.67
same,MIC,[20],0.5 µg/mL
same,MIC,[21],1 µg/mL
same,Activity,[41],1.3 µmol
CC(C)(O/N=C(\C(=O)N[C@@H]1C(=O)N2C(C(=O)[O-])=C(C[n+]3ccccc3)CS[C@H]12)c1csc(N)n1)C(=O)O [CEFTAZIDIME],Activity,[40],5.5 µmol
same,kcat/Km ratio,[19],4.06
same,MIC,[20],8 µg/mL
same,MIC,[21],8 µg/mL
same,Activity,[41],0.9 µmol
same,MIC,[39],0.125 µg/mL
CO/N=C(\C(=O)N[C@@H]1C(=O)N2C(C(=O)[O-])=C(C[n+]3cccc4c3CCC4)CS[C@H]12)c1csc(N)n1 [CEFPIROME],kcat/Km ratio,[19],2
same,MIC,[20],0.5 µg/mL
same,MIC,[21],0.25 µg/mL
same,MIC,[39],0.015 µg/mL
C[C@H]1[C@H](NC(=O)/C(=N\OC(C)(C)C(=O)O)c2csc(N)n2)C(=O)N1S(=O)(=O)O [AZTREONAM],MIC,[20],0.5 µg/mL
same,MIC,[21],0.5 µg/mL
CO/N=C(\C(=O)N[C@@H]1C(=O)N2C(C(=O)O)=C(COC(N)=O)CS[C@H]12)c1ccco1 [CEFUROXIME],kcat/Km ratio,[19],0.89
same,MIC,[20],64 µg/mL
same,MIC,[21],128 µg/mL
same,MIC,[39],4 µg/mL
CC1(C)S[C@@H]2[C@H](NC(=O)Cc3ccccc3)C(=O)N2[C@H]1C(=O)O [PENICILLIN G],MIC,[20],128 µg/mL
same,MIC,[21],128 µg/mL
CC(=O)OCC1=C(C(=O)O)N2C(=O)[C@@H](NC(=O)Cc3cccs3)[C@H]2SC1 [CEPHALOTHIN],Activity,[40],141 µmol
same,kcat/Km ratio,[19],1.12
same,MIC,[20],64 µg/mL
same,MIC,[21],64 µg/mL
same,Activity,[41],5.4 µmol
same,MIC,[39],4 µg/mL
